The series can be described thus: protein stability index of a GFP-peptide fusion (GPS, HEK-293T) (PSI 1-6); higher = more stable. The conditions noted are these: c terminus: a fixed tail appended.

± gives the standard deviation.

From the supplement of paper PMC10567573 come the findings set out here.
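Also: 24-mer peptide tiles fused after GFP, lentivirally expressed, FACS-sorted into six equal bins by GFP/DsRed ratio, decoded by Illumina sequencing, PSI is the read-weighted mean bin number.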

In turn, ERPPPPPSDDLTLLESSSSYKNLT [MCOLN1] gave a protein stability index (treatment: DMSO) of 5 ± 0.21 and a protein stability index (treatment: MLN4924 1 uM, 8 h) of 4.93 ± 0.21.
For ERQCALRVFKARIYTNRYETNEED [FBXO39], the protein stability index is, setting by setting: (treatment: DMSO) 3.54 ± 0.36; (treatment: MLN4924 1 uM, 8 h) 3.61 ± 0.41.
In the same order, the values of ERWLKELRDHADSNIVIMLVGNKS [RAB11A] are 2.32 ± 0.29 and 2.26 ± 0.34.
In turn, ESFYESTSPECASPQFEGPLSPPP [NEUROD6] gave a protein stability index (treatment: DMSO) of 4.92 ± 0.19 and a protein stability index (treatment: MLN4924 1 uM, 8 h) of 4.94 ± 0.22.
Regarding ESIESYDSCDRLTQSWSSQSSFNS [ETS1], the protein stability index runs as follows: (treatment: DMSO) 3.91 ± 0.34; (treatment: MLN4924 1 uM, 8 h) 4.1 ± 0.3.
Take ESLPVSLGPESWQQIAMDPEEVKS [BCL2L13]: the protein stability index came out at 5.39 ± 0.21 (treatment: DMSO) and 5.27 ± 0.31 (treatment: MLN4924 1 uM, 8 h).
On the same counts, the results for ESQLPEEWENNRESLIVFMEQVHR [CPXM2] are 3.79 ± 0.33 and 3.82 ± 0.49.
On the same counts, the results for ESRIVEQENAIQTMELRNYFSLYC [SNX8] are 2.62 ± 0.3 and 2.61 ± 0.19.
Turning to ESSSDSGSSDSEEERATRLAELQE [BRD3], the protein stability index by setting is: (treatment: DMSO) 5.5 ± 0.25; (treatment: MLN4924 1 uM, 8 h) 5.51 ± 0.063.
In the case of ESTFMYLTLDLPTAPLYKDEKEQL [USP39], the protein stability index was 3.4 ± 0.2 (treatment: DMSO) and 3.55 ± 0.15 (treatment: MLN4924 1 uM, 8 h).
In the same order, the values of ETFIVPDSFLVALDMDDGTLSFIV [SPSB1] are 2.66 ± 0.33 and 2.58 ± 0.54.
In the same order, the values of ETILNAFKMLDPDGKGKINKEYIK [MYL5] are 2.96 ± 0.31 and 3.17 ± 0.41.
As for EVANFYYEADCLAAAYGGKAAPAA [CEBPB], the protein stability index runs as follows: (treatment: DMSO) 2.91 ± 0.38; (treatment: MLN4924 1 uM, 8 h) 2.83 ± 0.38.
Take EVEWTEDLALDLGPQSRELTLKVL [C2CD2L]: the protein stability index was 3.44 ± 0.19 (treatment: DMSO) and 3.6 ± 0.36 (treatment: MLN4924 1 uM, 8 h).
In the same order, the values of EVITAAEFHPHHCNTFVYSSSKGT [PPP2R2B] are 3.28 ± 0.3 and 3.35 ± 0.56.
In the same order, the values of EVLIGAGYSTPADIWSTACMAFEL [SRPK2] are 3.14 ± 1.2 and 2.61 ± 0.88.
In the same order, the values of FAAPSPATTASPAKVDSSGVIDLF [SNAP91] are 2.93 ± 0.38 and 3.25 ± 0.52.
As to FADGVLSGEELHELFHTIDTHNTN [NECAB1], the protein stability index came to 3.12 ± 0.38 (treatment: DMSO) and 3.68 ± 0.21 (treatment: MLN4924 1 uM, 8 h).
On the same counts, the results for FAQALGCVLYACFILGRLCVPVFA [SOAT2] are 3.03 ± 0.6 and 2.64 ± 0.55.
Take FARVKKGADGVMRTMAPEKLLKSM [SNAP91]: the protein stability index is, setting by setting: (treatment: DMSO) 2.7 ± 0.18; (treatment: MLN4924 1 uM, 8 h) 3.05 ± 0.42.
Regarding FASDGDSGTCSPLRHSFQKQQREK [ADD1], the protein stability index by setting is: (treatment: DMSO) 3.98 ± 0.41; (treatment: MLN4924 1 uM, 8 h) 4.17 ± 0.39.
On the same counts, the results for FATQTEELNKQVVSSSEQLQSYQA [KRT33B] are 4.75 ± 0.24 and 4.64 ± 0.17.
In the same order, the values of FCGATIAGLSLLSPSVMRLVHTQE [ALKBH7] are 3.06 ± 0.44 and 2.71 ± 0.96.
For FDCPSELQHTQELFPQWHLPIKIA [STEAP1], the protein stability index runs as follows: (treatment: DMSO) 2.78 ± 0.33; (treatment: MLN4924 1 uM, 8 h) 2.79 ± 0.38.
In the same order, the values of FDDFVTNLIEKSASLDNGGCALTT [SOAT1] are 3.66 ± 0.27 and 3.62 ± 0.16.
For FDMSRYSSSGYSSAEINQDLNIQL [FAM219A], the protein stability index by setting is: (treatment: DMSO) 3.06 ± 0.27; (treatment: MLN4924 1 uM, 8 h) 3.12 ± 0.18.
In the same order, the values of FENMSNDDAVRVLREIVHKPGPIT [DVL3] are 3.65 ± 0.15 and 3.7 ± 0.15.
Take FFINEAMELKVGDFGLAARLEPLE [PLK2]: the protein stability index is, setting by setting: (treatment: DMSO) 2.61 ± 0.14; (treatment: MLN4924 1 uM, 8 h) 2.68 ± 0.18.
Sequence FFTLDLEHIADALRAIDFGTDEEE [TRIM63] came in with a protein stability index (treatment: DMSO) of 3.9 ± 0.63 and a protein stability index (treatment: MLN4924 1 uM, 8 h) of 4.27 ± 0.26.
In the same order, the values of FGASAAGGLSPVTNLTVTMDQLQG [CDC25A] are 3.65 ± 0.27 and 3.7 ± 0.46.
Consider FGYLGDRYNRKYLMCGGIAFWSLV [SPNS1], for which the protein stability index runs as follows: (treatment: DMSO) 3.1 ± 0.51; (treatment: MLN4924 1 uM, 8 h) 2.75 ± 0.71.
For FHAYYYCFITLTTIGFGDYVALQT [KCNK9], the protein stability index runs as follows: (treatment: DMSO) 3.27 ± 0.29; (treatment: MLN4924 1 uM, 8 h) 3.34 ± 0.36.
FIIGELHPDDRPKLNKPPETLITT [CYB5A] had a protein stability index (treatment: DMSO) of 2.73 ± 0.35 and a protein stability index (treatment: MLN4924 1 uM, 8 h) of 2.91 ± 0.4.
On the same counts, the results for FIYDCDPFTRRYYKEKFGITDLPR [EFHC1] are 2.35 ± 0.37 and 2.15 ± 0.26.
Sequence FKKHDADKVGLITLSDWAAAVESV [PPEF2] came in with a protein stability index (treatment: MLN4924 1 uM, 8 h) of 2.64 ± 0.46.
In the case of FNGELPNGRHKIPESQFPEFSTSL [SRPK2], the protein stability index reads like this: (treatment: DMSO) 3.51 ± 0.22; (treatment: MLN4924 1 uM, 8 h) 3.72 ± 0.32.
In the same order, the values of FNYRYFEVEEADGNKQWWFGGGCD [CPOX] are 2.48 ± 0.23 and 2.58 ± 0.28.
